Measurements from article PMC7914648 (Pharmaceuticals, 2021).
Values joined by “and” are separate entries in the source; they are usually repeats but may differ in a detail not shown here. Equal entries are not always repeated.

Tests used:
[1] = set-up: method as in 4 sources, ref 50, 59 = [50]; PMID 12697897; doi:10.1073/pnas.0931245100; 50. Smith R.A.J. Porteous C.M. Gane A.M. Murphy M.P. Delivery of bioactive molecules to mitochondria in vivo Proc. Natl. Acad. Sci. USA 2003 100 5407 5412 10.1073/pnas.0931245100 12697897 PMC154358 || [59]; PMID 23454352; doi:10.1016/j.bbagen.2013.02.005; 59. Porteous C.M. Menon D.K. Aigbirhio F.I. Smith R.A. Murphy M.P. P-glycoprotein (Mdr1a/1b) and breast cancer resistance protein (Bcrp) decrease the uptake of hydrophobic alkyl triphenylphosphonium c ||| ref 59 = [59]; PMID 23454352; doi:10.1016/j.bbagen.2013.02.005; 59. Porteous C.M. Menon D.K. Aigbirhio F.I. Smith R.A. Murphy M.P. P-glycoprotein (Mdr1a/1b) and breast cancer resistance protein (Bcrp) decrease the uptake of hydrophobic alkyl triphenylphosphonium c ||| ref 50 = [50]; PMID 12697897; doi:10.1073/pnas.0931245100; 50. Smith R.A.J. Porteous C.M. Gane A.M. Murphy M.P. Delivery of bioactive molecules to mitochondria in vivo Proc. Natl. Acad. Sci. USA 2003 100 5407 5412 10.1073/pnas.0931245100 12697897 PMC154358 ||| ref 60 = [60]; PMID 31751762; doi:10.1016/j.freeradbiomed.2019.11.021; 60. Pinho B.R. Duarte A.I. Canas P.M. Moreira P.I. Murphy M.P. Oliveira J.M.A. The interplay between redox signalling and proteostasis in neurodegeneration: In vivo effects of a mitochondria-targeted; settings: cited from earlier work
Text: TPP-driven mitochondriotropic compounds are not necessarily excluded from the brain [47, 48, 49, 50]. The literature contains several reports of the use of mitochondria-targeted probes to report on cerebral processes or of mitochondria-tar ...

[2] = fresh mouse blood, withdrawn from the jugular vein and heparinized; settings: C57BL mice, 37 °C, up to 4 h
[3] = Tissue distribution of An2-PAPTP and metabolites (liver, spleen, kidneys, heart) after i.v. injection; format: in vivo, mouse; settings: for metabolite in liver, 15 min: n = 5; for metabolite in heart, 15 min / metabolite in spleen, 15 min: N = 5; for metabolite in kidneys, 15 min, single animal: found in one animal out of five; for metabolite in liver, 30 min: n = 4; for metabolite in liver, 60 min: n = 6
Text: The total amount of An2-PAPTP and its metabolites, summarized in Table 3, is comprehensive of all the species having the characteristic psoralenic UV spectrum obtained by the overall extraction procedure (i.e., from organic solvent extraction and basic hydrolysis of the remaining pellet), and represents and underestimation of the real concentration in the tissue (see Section 4.7.3). This is because no recovery yield correction was applied, since it was impossible to identify most of the species extracted, and because PAPTPL extracted after high-pH hydrolysis of the pellet could come either from An2-PAPTP or from metabolites. For quantification in HPLC analysis, all the psoralenic species were assumed to have the same molar extinction coefficient as PAPTPL, an assumption justified by the near-identity observed for all the available psoralen-containing molecules.
(§1) The liver, spleen, kidneys, heart obtained from untreated mice were weighed and homogenized with PBS pH 7.4 (1 vol) with a potter. The pre-established amount of PAPTPL was added into tissue homogenates or blood and, after thorough vortexing, 5 vol of acetone were added and the sample was sonicated for 2 min. Subsequently, 5 vol of ACN containing 0.1% TFA were added and the sample was sonicated for 5 min. The sample was then centrifuged at 12,000× g for 7 min at 4 °C and the supernatant was collected, concentrated with a Hetovac VR-1, and analyzed via HPLC-UV.
as §1, with “Brain and liver” for “The liver, spleen, kidneys, heart”, “analyte” for “PAPTPL”, “homogenates” for “homogenates or blood”, “trifluoracetic acid (TFA)” for “TFA”
To quantify the amount of An2-PAPTP stuck in the tissue, the pellet remaining after the procedure described above was incubated with intermittent Vortexing at 60 °C for 3 h with PBS pH 12.5/ACN 1:1 and then centrifuged at 12,000× g for 7 min. HPLC-UV analysis of the supernatant, measuring PAPTPL hydrolyzed from the tissue, thus indirectly reflects the amount of An2-PAPTPL in the pellet (Scheme 3). Quantification was as described for PAPTPL.
A stock solution of the peptide-PAPTP conjugates was prepared in DMSO. TAT-PAPTP was administered at 8 and 5 μmol/kg bw and An2-PAPTP only at 5 μmol/kg bw. The calculated quantity of drugs was diluted from the stock solution in saline or mouse plasma to a final volume of 200 μL.

[4] = after An2-PAPTP 5 µmoles/kg bw i.v., mean ± SEM
[5] = after An2-PAPTP 5 µmoles/kg bw i.v., liver, mean ± SEM
[6] = after An2-PAPTP i.v., mean ± SEM
[7] = after An2-PAPTP i.v., kidneys, found in one animal out of four
[8] = after An2-PAPTP 5 µmoles/kg bw i.v., liver, 30 min, mean ± SEM
[9] = after An2-PAPTP i.v., mean ± SEM, N = 4
[10] = after An2-PAPTP i.v., mean ± SEM, N = 6

Molecule	metabolite in heart, 15 min [3, 4] [nmol/g fresh tissue]	metabolite in liver, 15 min [3, 5] [% administered dose]	metabolite in heart, 15 min [3, 6] [% administered dose]	metabolite in kidneys, 15 min, single animal ([3]; after An2-PAPTP i.v., kidneys)	metabolite in kidneys, 30 min, single animal [3, 7]	metabolite in spleen, 15 min [3, 6] [% administered dose]	metabolite in liver, 30 min [3, 8] [% administered dose]	metabolite in liver, 60 min [3, 5] [% administered dose]	metabolite in heart, 30 min [3, 9] [% administered dose]	metabolite in spleen, 30 min [3, 9] [% administered dose]	metabolite in spleen, 60 min [3, 10] [% administered dose]	further results
COC1=C(OC)C(=O)C(CCCCCCCCCC[P+](c2ccccc2)(c2ccccc2)c2ccccc2)=C(C)C1=O [MitoQ]	–	–	–	–	–	–	–	–	–	–	–	amount in the brain, R6/2 mice ([1]; 500 µM MitoQ in drinking water for 6 weeks, R6/2 mice): ~5 pmol/g; amount in the brain, WT mice ([1]; 500 µM MitoQ in drinking water for 6 weeks, WT mice): about 1 pmol/g; steady-state brain radioactivity levels ([1]; 10-day administration of 500 µM in drinking water): ~0.15 nmol/gr fresh tissue; initial peak concentration in brain tissue ([1]; i.v. injection of 100 nmol radiolabelled compound in (WT) mice, scintillation counting): about 0.05 nmol/gr; Area Under Curve in brain ([1]; i.v., wild-type mice): 0.6 nmol·h/g wet weight
HN-IGRKKRRQRRRPPQG-OH	–	–	–	–	–	–	–	–	–	–	–	cleaved bond [2]: hydrolysis of the carbamate bond connecting the peptide and PAPTPL
CCC(C)C(NC(=O)Oc1ccc(CCCOc2ccc([P+](CCCc3ccc(OCCCCOc4c5ccoc5cc5oc(=O)ccc45)cc3)(c3ccccc3)c3ccccc3)cc2)cc1)C(=O)O.O=C([O-])C(F)(F)F (stereo not drawn) [PAPTPL-I, (4-(3-(4-(((1-carboxy-2-methylbutyl)carbamoyl)oxy)phenyl)propoxy)phenyl) (3-(4-(4-((7-oxo-7H-furo[3,2-g]chromen-4-yl)oxy)butoxy)phenyl)propyl)diphenylphosphonium 2,2,2-trifluoroacetate]	0	0.4 ± 0.2	0	0.32 nmol/g fresh tissue and 0.02 % administered dose	0.32 nmol/g fresh tissue and 0.03 % administered dose	0.04 ± 0.02	–	–	–	–	–	metabolite in liver, 15 min ([3]; after An2-PAPTP 5 µmoles/kg bw i.v. in mouse plasma, liver, HPLC-UV, mean ± SEM): 0.5 ± 0.3 nmol/g fresh tissue; metabolite in spleen, 15 min [3, 4]: 0.7 ± 0.3 nmol/g fresh tissue; metabolite in liver, 30 min, single animal ([3]; after An2-PAPTP i.v., liver, 30 min, found in one animal out of four): 0.2 nmol/g fresh tissue and 0.03 % administered dose
CC[C@H](C)[C@H](NC(=O)Oc1ccc(CCCOc2ccc([P+](CCCc3ccc(OCCCCOc4c5ccoc5cc5oc(=O)ccc45)cc3)(c3ccccc3)c3ccccc3)cc2)cc1)C(=O)N[C@H](C(=O)N[C@@H](Cc1ccccc1)C(=O)O)[C@@H](C)O [PAPTPL-ITF, PAPTPL-isoleucine-threonine-phenylalanine]	0	1.7 ± 1.0	0	0.01 % administered dose	–	0.13 ± 0.08	1.2 ± 0.5	3.9 ± 1.0	0.008 ± 0.007	0.02 ± 0.01	0.08 ± 0.01	metabolite in kidneys, 30 min ([3]; after An2-PAPTP i.v., kidneys, mean ± SEM, N = 4): 0.12 ± 0.08 % administered dose; metabolite in kidneys, 60 min ([3]; after An2-PAPTP i.v., kidneys, mean ± SEM, N = 6): 0.02 ± 0.01 % administered dose
CC[C@H](C)[C@H](NC(=O)Oc1ccc(CCCOc2ccc([P+](CCCc3ccc(OCCCCOc4c5ccoc5cc5oc(=O)ccc45)cc3)(c3ccccc3)c3ccccc3)cc2)cc1)C(=O)N[C@H](C(=O)O)[C@@H](C)O [PAPTPL-IT, PAPTPL-isoleucine- threonine]	0	2.8 ± 1.0	0	0.04 % administered dose	0.05 % administered dose	0.10 ± 0.04	2.7 ± 1.8	6.2 ± 1.6	0.01 ± 0.01	0.07 ± 0.04	0.07 ± 0.03	metabolite in kidneys, 60 min, single animal ([3]; after An2-PAPTP i.v., kidneys, found in one animal out of six): 0.006 % administered dose
